Laboratory results taken from publication PMC9813072 (Osteoporosis International, 2022).

How the values were obtained:
[1] = type: in vivo, healthy men and postmenopausal women; conditions: single SC 20 μg; N = 105 per treatment
[2] = cited from earlier work
[3] = system: serum calcium; conditions: teriparatide 20 μg once a day; cited from earlier work

| Substance | Total adverse events, number of events [1] [e] | Total adverse events, subjects [1] | Half-life ([2]; after SC injection) | Time to peak serum concentration ([2]; after SC injections of 20, 40, and 80 μg) | Absolute bioavailability ([2]; following SC administration) [%] | Median increase of serum calcium at peak [3] [mg/dL] |
| --- | --- | --- | --- | --- | --- | --- |
| EU-teriparatide: Forsteo®, Eli Lilly, The Netherlands; EU-approved teriparatide reference product | 5 | 4 (3.81%) n (%) | – | – | – | – |
| Teriparatide | – | – | approximately 1 h | approximately 30 min | 95 | 0.4 |
| Teriparatide biosimilar: potential biosimilar of teriparatide developed by Intas Pharmaceutical Ltd., India; test product | – | 8 (7.62%) n (%) | – | – | – | – |
| US-teriparatide: Forteo®, Lilly USA; US-approved teriparatide reference product | 3 | 3 (2.86%) n (%) | – | – | – | – |
